± gives the uncertainty stated by the source.
Experiment: protein stability index of a GFP-peptide fusion (yeast GPS) (PSI 1-4); higher = more stable; sorted into four equal gates, so the index is relative within each strain
Summary of the method: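 Mid-log yeast cultures in leucine-free medium, carrying a pooled plasmid library, were sorted into four equal gates by their GFP/Cherry fluorescence ratio. Each plasmid expressed Cherry along with GFP fused upstream of a tiled 17-residue yeast protein peptide. Plasmids recovered from each gate were PCR-amplified and Illumina-sequenced, with reads assigned to strains by barcodes. The protein stability index was obtained by summing each gate's read frequency weighted by its gate number.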

Sequence	protein stability index (doa10∆)	protein stability index (pdr5∆)	protein stability index (san1∆)	protein stability index (ubr1∆)
LLQVNKTFCEDPFSDVD [GRR1]	3.13 ± 0.072	3.35 ± 0.051	3.32 ± 0.035	3.28 ± 0.036
THTEQNNPPKPQKPVPL [SNF2]	2.88 ± 0.08	3.34 ± 0.094	3.12 ± 0.049	3.15 ± 0.057
KGEMKGSAITGPVGKEC [RPL23A]	3.19 ± 0.065	2.98 ± 0.065	3 ± 0.051	3 ± 0.044
IDGKTVSYKDYSIFLEN [SMC1]	2.72 ± 0.062	3.07 ± 0.057	2.85 ± 0.061	2.89 ± 0.046
IRVLFKENGQLIGAATK [SEC65]	1.97 ± 0.068	2.12 ± 0.11	2.17 ± 0.12	2.38 ± 0.079
ITKEVTQVNILKENNAI [YIL149C/MLP2]	2.91 ± 0.057	3.14 ± 0.065	2.87 ± 0.085	3.17 ± 0.044
GILDEIMFNHARIIRSE [RGR1]	2.75 ± 0.061	2.98 ± 0.071	3.08 ± 0.069	3.07 ± 0.032
EQSELLKAQITSLKCLV [SNF2]	1.92 ± 0.049	1.83 ± 0.048	2.16 ± 0.074	1.99 ± 0.042
LHCCIQLLMGDIPELSF [RPN3]	1.71 ± 0.048	1.73 ± 0.052	1.78 ± 0.065	1.71 ± 0.042
TDLTNNSTDGAKITEIG [YIL149C/MLP2]	3.35 ± 0.087	3.17 ± 0.08	3.07 ± 0.058	3.28 ± 0.055
KATLELLKLIEPYVAYG [RPL7A]	2.28 ± 0.078	3.24 ± 0.083	3.3 ± 0.034	2.79 ± 0.047
LHNLNEYQIVYYNPQAG [RGR1]	1.41 ± 0.27	2.44 ± 0.15	2.1 ± 0.11	
NSQVFGVARIYASFNDT [RPS14B]	2.54 ± 0.08	2.45 ± 0.065	2.5 ± 0.048	2.67 ± 0.079
FEIDDEHRIRVFFDKRI [RPS6A]	1.88 ± 0.089	3.02 ± 0.12	2.17 ± 0.13	2.94 ± 0.16
FEDATREQHIDTICQSI [SNF5]	2.88 ± 0.1	3.21 ± 0.15	3.26 ± 0.066	3.19 ± 0.08
KTWLRNQEDEKNLQRES [RTT102]				3.23 ± 0.19
SVVKKEDNKYAIAGNST [RGR1]	3.1 ± 0.084	2.63 ± 0.072	3.02 ± 0.054	2.92 ± 0.054
PRVQGFYVPQARNVTFD [GRR1]	2.99 ± 0.064	2.68 ± 0.056	2.91 ± 0.038	3.02 ± 0.045
RESFEDNVVRFLNEARD [RPO21]	3.21 ± 0.15	2.98 ± 0.13	3.04 ± 0.16	2.92 ± 0.11
TRRKRRQGRSNRRGMLA [SNF5]	2.51 ± 0.13	2.71 ± 0.14	2.86 ± 0.11	2.99 ± 0.11
TFLKYFGWLLSDNSVSV [IRR1]	2.67 ± 0.14	2.4 ± 0.11	2.24 ± 0.097	2.66 ± 0.11
ISKQKSKLDYIFKDKEK [SMC1]	2.78 ± 0.14	2.71 ± 0.12	2.89 ± 0.15	3.29 ± 0.091
QILTVDPKTSLRIVKPT [RPC82]	3.07 ± 0.21	2.99 ± 0.19	3.09 ± 0.12	
VTVFLFMLILALFVFYS [COB]	2.32 ± 0.067	1.8 ± 0.042	2.27 ± 0.057	1.99 ± 0.039
NAAPANVTGGKAANFIQ [SWI1]	2.52 ± 0.05	1.86 ± 0.045	2.48 ± 0.086	2.46 ± 0.049
MVVNGPIPDARNAALRA [SCL1]	2.38 ± 0.14	2.72 ± 0.11	2.36 ± 0.13	2.35 ± 0.091
KVVTKKYCEIMGDNSQL [SNF2]	3.19 ± 0.17	3.25 ± 0.14	2.88 ± 0.15	2.98 ± 0.1

Sequence	protein stability index (doa10∆)	protein stability index (pdr5∆)	protein stability index (san1∆)	protein stability index (ubr1∆)
IKELLNITKNLKTFNGS [POP4]	1.99 ± 0.13	2 ± 0.064	2.46 ± 0.056	2.21 ± 0.047
GSKSASKQTPQPKAPRA [ISW2]	3.08 ± 0.076	3.17 ± 0.12	2.76 ± 0.1	3.23 ± 0.08
DDDTFSDREMAALIASK [RPN2]	1.6 ± 0.079	1.55 ± 0.056	1.32 ± 0.12	1.79 ± 0.063
ILVFQVSMKANKYQIKK [RPL25]	1.93 ± 0.052	2.2 ± 0.054	3.09 ± 0.046	3.03 ± 0.045
SKTVVTLSEPVQGELKP [FAS1]	2.56 ± 0.05	2.73 ± 0.052	2.5 ± 0.053	2.18 ± 0.033
GVILMFAAILVLLVLPF [COB]	2.69 ± 0.062	1.34 ± 0.05	1.25 ± 0.065	1.14 ± 0.046
SDLGTVVFDSNEAPPKT [YMR153W/NUP53]	3.17 ± 0.057	3.13 ± 0.051	2.6 ± 0.076	2.58 ± 0.069
QLSKAAKAAAALAGGKK [RPS25A]	1.7 ± 0.057	1.86 ± 0.067	1.82 ± 0.08	1.77 ± 0.047
IRAGEFDVVLTTFEYII [SNF2]	2.31 ± 0.14	2.56 ± 0.13	2.37 ± 0.11	2.59 ± 0.12
TAIGIATKEGVVLGVEK [PUP2]	3.15 ± 0.14	3.31 ± 0.11	2.79 ± 0.16	3.11 ± 0.058
IDDANVTRKQEDARRNP [RPC37]	1.45 ± 0.15	1.8 ± 0.081	2.06 ± 0.13	2.01 ± 0.1
LNLTGPKVPEDIYKSHL [RPN1]	2.9 ± 0.15	3.11 ± 0.11	2.85 ± 0.1	2.9 ± 0.26
ILDTSQSESRQKRQLHD [SNU114]	3.23 ± 0.11	3.12 ± 0.084	1.72 ± 0.24	3.01 ± 0.048
DHILFTKTFIFIYKKVL [SRB8]	1.49 ± 0.091	1.14 ± 0.14	1.15 ± 0.13	1.11 ± 0.044
ILKSLKNRSNRKRFHSQ [YOR098C/NUP1]	3.08 ± 0.061	3.22 ± 0.066	3.03 ± 0.081	3.11 ± 0.042
HPFVFEEVEDQINPTRE [SNF2]	3.36 ± 0.077	3.5 ± 0.13	2.94 ± 0.17	3.13 ± 0.086
IENMTKEKVSNGGVGVD [FAS2]	3.23 ± 0.088	3.16 ± 0.1	3.33 ± 0.087	3.11 ± 0.063
RGDSTETSSFGSMFSGD [RRI1]	3.5 ± 0.087	3.27 ± 0.16	3.35 ± 0.053	3.27 ± 0.15
VLAKRMANLSQIYTQRA [SCL1]	2.52 ± 0.12	3 ± 0.27	2.34 ± 0.12	2.69 ± 0.091
ASFNDTFVHVTDLSGKE [RPS14A]	2.17 ± 0.097	1.36 ± 0.093	1.76 ± 0.22	1.15 ± 0.082
VRIPPDQFHRDTISAIT [RPC25]	1.91 ± 0.042	2.43 ± 0.048	2.02 ± 0.064	1.8 ± 0.032
QESFVPNSERSGTPTLK [YOR098C/NUP1]	3.03 ± 0.16	2.25 ± 0.15		1.79 ± 0.19
LLENFANFKTSKKYQLA [RRP6]	2.09 ± 0.25	2.57 ± 0.2	2.27 ± 0.21	2.33 ± 0.17
LGGPITKESQPTIEEDL [FAS2]	3.02 ± 0.21	3.19 ± 0.15	2.77 ± 0.18	2.96 ± 0.069
QSVYNDEKLKTEKLKND [SRB8]		3.74 ± 0.21	3.21 ± 0.18	3.36 ± 0.22
EHNPSAHTASVGVVFGS [COR1]	3.21 ± 0.16	3.24 ± 0.13	2.88 ± 0.14	2.22 ± 0.27
KTSLMDLLVIDSHKRIP [SNU114]	2.43 ± 0.069	2.73 ± 0.078	2.74 ± 0.063	2.41 ± 0.054

Sequence	protein stability index (doa10∆)	protein stability index (pdr5∆)	protein stability index (san1∆)	protein stability index (ubr1∆)
AASKVKLEEESKRGNDK [RPC53]	3.27 ± 0.089	3.41 ± 0.098	3.38 ± 0.071	3.25 ± 0.064
LQQKQRDLILKKGEYAR [SMC3]	2.3 ± 0.12	2.42 ± 0.14	2.5 ± 0.29	2.71 ± 0.072
IGTANYKPLIEERMGQI [SMC4]	3.1 ± 0.087	3.53 ± 0.087	3.37 ± 0.059	3.27 ± 0.063
SRKGIAFGLGAIMSKSS [ECM29]	1.61 ± 0.058	1.86 ± 0.054	1.64 ± 0.08	1.74 ± 0.036
FVYNKVNETEAILYTKP [YGR119C/NUP57]	2.76 ± 0.084	3.06 ± 0.072	2.74 ± 0.056	2.97 ± 0.07
TQAKRIFLQQFLQELLK [SWI1]	2.62 ± 0.072	2.42 ± 0.092	2.43 ± 0.082	2.1 ± 0.064
FDVVLTTFEYIIKERAL [SNF2]	2.12 ± 0.067	2.36 ± 0.071	2.05 ± 0.088	2.14 ± 0.071
NGGNNTQQPGTNSHYNN [SNF2]	3.05 ± 0.058	3.16 ± 0.063	3.04 ± 0.054	3.05 ± 0.047
FNATVDETKGFDDNDSG [MED2]	3.14 ± 0.09	3.17 ± 0.078	3.25 ± 0.066	3.29 ± 0.078
LDAKNKVFVPPKSKSLP [RPO31]	2.71 ± 0.075	3.03 ± 0.062	3.37 ± 0.085	2.72 ± 0.055
FIGRLPIMLRSKNCYLS [RPB2]	1.43 ± 0.072	1.58 ± 0.081	1.17 ± 0.14	1.19 ± 0.054
ALYVLRERIRKGLQIYQ [PRP8]	2.54 ± 0.24	2.85 ± 0.11	2.26 ± 0.13	2.41 ± 0.29
REKRDRTHFKRMRFPPF [PRP8]	2.27 ± 0.05	2.64 ± 0.069	2.22 ± 0.098	2.2 ± 0.047
LVQMYIGEGAKLVRDAF [RPT5]			2.51 ± 0.27	
TQTFNGSIFTHETTFMT [YML031W/NDC1]	2.86 ± 0.063	2.79 ± 0.066	2.84 ± 0.035	2.89 ± 0.047
KPKNTKENLSKSSWRQE [SIR4]	1.35 ± 0.076	1.21 ± 0.049	1.21 ± 0.1	1.5 ± 0.049
DRYGNRYFWLDHNGVPF [ITC1]	2.8 ± 0.094	3.18 ± 0.098	2.92 ± 0.051	2.78 ± 0.082
TTSLNPIQSKVFHAAFE [BRR2]	2.65 ± 0.062	2.56 ± 0.071	2.08 ± 0.11	2.85 ± 0.052
WALKSSLNSMTNAKLPN [RGR1]	2.74 ± 0.092	2.77 ± 0.13	3.17 ± 0.052	2.39 ± 0.05
MSSQIIDRPKHELSRAE [SMD2]	3.14 ± 0.093	3.46 ± 0.12	3.2 ± 0.11	3.25 ± 0.11
NNVNEYSYTTIVLSDQT [YJL039C/NUP192]	3.11 ± 0.059	3.14 ± 0.066	3.09 ± 0.045	2.93 ± 0.044
PNELSQILTVDPKTSLR [RPC82]	2.2 ± 0.069	1.91 ± 0.059	2.33 ± 0.067	2.45 ± 0.053
NNIVSVLTAGVNSVAIK [RPN11]	2.28 ± 0.075	2.26 ± 0.087	2.66 ± 0.078	1.97 ± 0.058
NIKSNDFSIRKTCAKSV [ECM29]	2.55 ± 0.087	2.24 ± 0.1	2.27 ± 0.18	2.83 ± 0.15
SKLLREHGYQSRGFEVM [RPB2]	3.14 ± 0.13	2.71 ± 0.16	2.9 ± 0.14	2.61 ± 0.19
DTLNETNLKMKRKWSYV [RRP43]	2.24 ± 0.061	2.56 ± 0.04	2.98 ± 0.1	2.61 ± 0.073

— the supplement of paper PMC9732359
